Results taken from publication doi:10.1101/2020.07.08.194100.

Experiments:
[1] = molecular target: GST-RhoA^V14 (constitutively active RhoA) (UniProt P61586); experiment: pull-down
[2] = molecular target: GST-RhoA^N19 (inactive RhoA) (UniProt P61586); experiment: pull-down

How did the fold change of binding after PMA against vehicle control [1] turn out when “HA-tagged wild-type diacylglycerol kinase ζ (HA-DGKζ) (enzyme)” was run?
The fold change of binding after PMA against vehicle control was 2 fold.

And the fold change of binding after PMA against vehicle control [2]?
Its fold change of binding after PMA against vehicle control is 2 fold.
